Assay results taken from patent US12077763B2, “RNA-based control of powdery mildew” (Greenlight Biosciences, Inc., priority 2021, dated 2024).

B1: GS1864: dsRNA trigger SEQ ID NO 197; gene target NEDD8-conjugating enzyme UBC12 (nucleic acid)
chain: TTCCAAAAAAAAAACTCATCAGGTTTTTAGAACACAATCAAACGTTTGGCCCTTAATAGTACCGCCAGCCATACTATTTCTAACATTTCTCTTGAATATCTCACGATGATTCCGAAGATCTTCGGCGGCTTCTTTATTCAACGGATCCGAAGAATTTGGCTCTAAAAAGAGAAAAATAATTAAAGAATTCCAGTAGCGAACTAGACCAGAGTAGAGCAGGAAGGAGTATTCGATGATACCTAAAAAAAGACACACACGTTATAAAATGGCTCTAAGAATGGTATTGAGGCTAATGTATATTTTTTTCTTTGAAAAAACAAAAAACAAACAAACAAAAAAATTATGGATAATAAGTAATCCTACCACTACACTCTGTAGATTTAGGACCGGTTTCCAGTCCTCACGCAAGATATTGAGACACACGTTTCCATCAAGATCGATATTTGGATGATAAATCTTTTCTATACATTTTACTTTTGGCGCTTCATGAGGGAAGTTTTGAGAGATAGAAAAAGTGAATTGAAAAC
B2: GS1867: dsRNA trigger SEQ ID NO 126; gene target hypothetical_protein_BGT96224_Ac30495 (nucleic acid)
chain: AAACCGAAATCTACGACAGGTAAAGCATCACGCAATATAACGGCGAAAGCCCACCTGCTATCACCTACTCTCAACGTCCTACGAAAAGATGTTGTTTTCGAGAAAGCGCTCAGTGACATGCATGGCTCTTCCGATAAATACCTAGATAAAGACTCTAGCATGGAAATTAATATAGGTGATGATATCAGCGAGGGGTCGAATGCGGATCCCTTTGCAGAAGAACTCCCCACGCCATCAATAGCGCCAGATACTGCGGTAGCTACCACACTTAACTTAGCACATGGACAGGACGTGAAAGATAATCACAATGCGGCTAGTCTCATGGATGCAATCAAAGGCCTACTAGACTTGACAAATGATTACTTAAAAAATCTTGAAGCACATCACCCAGGAGTTGGGGCAGACTTCTTAGCGCTTCTAGCGGACGGAGCCTCCCGAGCTATGCGCGGAGAGCGAGTTTATTCTAATACATCAAAAGTATGCGAAGGTAGAAAACAAGGAACACAGGCAACATGGACTGA
B3: GS1863: dsRNA trigger SEQ ID NO 167; gene target Chromatin remodeling factor mit1 (nucleic acid)
chain: TTGAGCCAAAATAAGAAACGACACGTAGCTTTGGAGCCCATTTTTTAATTTCTCGACGCCAATTAAGGCAAGTCGAATTAGGAGCTACAACTAAAAAGGGCCAACATTTCGAGTGATTTTTGACAATTGCTACGATAAAGGCAATAATTTGTATTGTCTTTCCTAAGCCCATCTCATCTGCTAGAATAACATTTTTCTTTTGATGGAAGTTATAAAGTAGCCAATTTAGACCTTCCATTTGATATTGCATCATCTTTCCTCCTGTGAGTTGTAGAGGTTGCTCTTTCATCTCAACTCTTCTTGAAAAATTTAATTTTCGGAACATCTGTAAGCGATGGTCCATAGCTGAAGTTGAGGATTGCCTAAAGTATTTTCCATCAATAAATTCATTATAGGCGGTAATAAAGCTTTGATATCTTTCGATATTCTCAATTTTTGGGGGCTCCATCCATACTGCTTCATCATAAGCAAGACCTTTGAATTTTACAAAGACTTCAGTGATCATATTAGCAGCAGCCTTGTCTATCTT
B4: GS1869: dsRNA trigger SEQ ID NO 166; gene target General alpha-glucoside permease (nucleic acid)
chain: CGGCCCCATCGAACCATACTTTTTGCAAAAAGATGGCATCGCATAGAATTGAGCAAGCAAGAGATTATCGTAACCTTCCATAATAATACCAGTTGAGATAGCAACACTATAAACAGCAGCTGGCCACCACAATTTTAGAGCTTCGTTGACAGTCATATTCTTTTCAAGCTCTTCCGCACGATGGGCACCCTGAGTGGTATAGTACTGACTCTTTTCCAAAGAAGGAGCTCGGCCAATGTCCTCCTCATGCTTGGCAGTAGTTTCAAGAATGGACTTGTCGATAATAGACATTTTGAGAGTTGAGAAGTCAAAAAAATTTTGAAGTAAAGATCAGACTAAAGGTGAGTTTGGGGATTTAAAAAAAGAATATTAGGGTAAGGTTATGATTGAGTTCACAAGGGAATAGGTTTTCTAGAAAGAGCATGAAGGAAAGACATAAAACCTGAGAGTGATATTTGGATAATTTTGAATTCCATCGTCAACAGCTTCGGGAGACAAGTCTTTATAGAATTCTGAT
B5: GS1865: dsRNA trigger SEQ ID NO 183; gene target Protein transport protein SEC31 (nucleic acid)
chain: TTGAGCTTCTGGGTGTTTTGTAAGAGAGTTTGTGTTAAATAGTGTCTGTATAGAAATTTTGCCATCAAAAGACGCAGTTGCAGAAAGTGCTGGATTATGAGGATGAAATCGAGTCTGAAAGGTCCAGTTTGTAGCTTCAGGAAATTCTCCCAGGAGTTCTCCAAGCTGTGGGTTCCATAAGATAGTTCTATTATCTTTGCCACATGATAACAGCAAATTGCTGTCTTGTTGACACCATGAGATTGATAAAATTCCCTGATTATGGCCTTGTAATGTACATTCTGGTGCATTGGAATTTCGTAAATCCCAAAGAAGAATAACTGGTTTTGTATCATCAGGTGTTGCTGTTAGTAGCTTCGTTGAATTTTCTGGATCCCAAGCAATAGCTCCAACAGCTTTACGATTGTTATTCAAAGTCAATGACGCTTTTTTGGTTTTTAAGTCCCACACTGTAACAAATCCTCCAGTTCCACCAGTAGCCAAAATATGAGGAACTTTCCTATTCCAGGCAACACATTCAAGGTCAT
B6: GS1868: dsRNA trigger SEQ ID NO 177; gene target Glycine-rich RNA-binding protein 4, mitochondrial (nucleic acid)
chain: TGCCCCATGAGAGACCGCCAATAAAGAGTTTAGGCATTCTGTATGTTAATTTTTATCCTCGCGAACCTGGTATAAAGTCTTAATCTCCGCGTGCATCCTTGAATAAAATGTGACAACGCCATCGAGTTTGAGAGGGAGAGAGAAAGTGGATACGGAACAGTTAAAGAAAAGTACATCGGGATATAACAAAACCTCCGTGTAGCATACAAATGAGGGGACGATGAATATATTTGTTTGCTTGGTGAACAGGCCGGGGAGGATTGGGATGAAGTAATGTTAGTACACACTGTCAGAGAACTAACGAACTTCTAGTGAGTTGCTCAAGAAGAGCAAAGTGCTGCGTTTATAGGGAGACCTGATGAACTTTATTAATTCGGTTTGGAGGAGCAATTTTTATAATGGACTGGAGTAACCGATCAGTCAATTTCGTGATAGAACTATTCTTCCGCAAATTGAGACGCAAAAGCTCTCTGATTGTGATGACAAGAGTTTTGCGGGTCTCAATAAAGGAATTGATGTTT
B7: GS1866: dsRNA trigger SEQ ID NO 163; gene target Proline-rich protein LAS17 (nucleic acid)
chain: ATATCGGGAGGGGTGGCGGTAATGAGGAAGGCTCTTGAGCTGCTATGAGAGATGGTGATGATTGTGCCTGATGTACTGGAAGTAATGGTAGTGATGATGTTTGAGTAACACGAAGAGATGTTGGCGATGGAGCTGGAGAAACTGAGGGATTTTTTGGTATTTGAGAGACTGTGAAAGATTGAGGTTGTGGACTATTTGGCTCTCTATTCTTTTCACAGTCTCGAGTAGTTATTTGAACACTAGGACGTAACGAGGAAGGAGGCAAAGGAGGTGTTGCTGATGCAGATACTATCGGAATTTTTGGAGGTAATTGGGGAGGAGGGAGATGCTCACTTTTAGCAAGAGGGGTTGTGACTTGGGAAGAACTTGTATGAAAAACACGAGTTAAAGGTGGTATTGTTTCACGTGGTGGTATTAAAGGCCCCGCACGATGTGAAATAAAAGATCCAGTGTTTTTCTCACCTGAAAAAGGTGGTGGTACGTTGAATTTAGAGACGCCCGATTCCGAATTTTCTTTAGAATTTTT

Test system: E. necator
Assay: Leaf disc assay, dry inoculum (settling tower), decrease in disease severity / hyphal growth (Example 2)
Conditions: decrease in disease severity (hyphal growth) relative to untreated control, value ± SE; for % decrease =/− SE TP1: time point 1 (untreated control hyphal growth ≥50%); for % decrease =/− SE TP2: time point 2

Molecule	% decrease =/− SE TP1 [%]	% decrease =/− SE TP2 [%]
B1	5 ± 6	3 ± 9
B2	7 ± 4	
B3	6 ± 5	
B4	21 ± 7	17 ± 7
B5	5 ± 6	3 ± 10
B6	1 ± 6	
B7	8 ± 5	13 ± 7
